According to paper PMC3630103, “Development of a Highly Protective Combination Monoclonal Antibody Therapy against Chikungunya Virus” (PLoS Pathogens, 2013):

B1: CHK-152 (mouse monoclonal antibody) (antibody, V domains shown)
VH: QVQLQQPGAALVKPGASAMMSCKASGYTFTSYWITWVKQRPGQGLEWIGDIYPGTGRTIYKEKFKTKATLTVDTSSSTAFMQLNSLTSEDSAVYYCARGYGSPYYALDYWGQGTSVTVSS
VL: DIVLTQSPASLAVSQGQRATISCKASQSVDYDGDSYVNWYQQKPGQSPKLLIYDASNLESGIPARFSGSGSGTDFTLNIHPVEEEDVATYYCQESNEDPRTFGGGTKLEIK
notes: mouse VH of CHK-152; mouse IgG heavy-chain constant region; mouse VL of CHK-152; mouse light-chain constant region; also called murine CHK-152; mouse CHK-152
B2: CHK-166 (mouse monoclonal antibody) (antibody, V domains shown)
VH: EVRLVESGGGLEQPGGSLKLSCAASGFTFSDYFMYWVRQTPEKRLEWVAYISNGGISTFYSDAVKGRFTISRDNARNTLYLQMSRLKSEDTAIYYCVRQVYGQGYFDYWGQGTTLAVSS
VL: QIVLIQSPAIMSASLGERVTMTCTASSSVSSSYLHWYQQKPGSSPKLWIYSSFSLASGVPARFSGSGSGTSYSLTISTMEAEDAATYYCHQYLRSPWTFGGGSKLEIK
B3: CHK-102 (mouse monoclonal antibody) (antibody, V domains shown)
VH: QVQLQQSGAELVKPGASVKISCKTSGYAFSSFWMHWVKQRPGKGLEWIGQIYPGDGDTNYNGKFKDKATLTADKSSNTAYMQLTSLTSEDSAVYFCARNLLFDYWGQGTTLTVSS
VL: EILMTQSPAILSVSPGERVSFSCRASQSIGSNIHWYQQRTNGSPRLLIKYASESISGIPSRFSGSGSGTDFTLSINSVESEDIADYYCQQNNIWPFTFGSGTKLEIK
B4: CHK-263 (mouse monoclonal antibody) (antibody, V domains shown)
VH: QVQLQQSGAELVKPGASVKISCKASGYAFSSYWMNWVKQRPGKGLEWIGQIYPGDGDTNYNGKFKGKATLTADKSSSTAYMQLSSLTSEDSAVYFCARGGLTIDYWGQGTTLTVSS
VL: DIVLTQSPATLSVTPGDSVSLSCRASQSISDNLHWYQQKSHESPGLLIKYASQSISGIPSRFSGSGSGTDFTLSINSVETEDFGMYFCQQSNSWPYTFGGGTKLEIK

How the values were obtained:
[1] = biological target: CHIKV pE2-E1 (E3-E2-E1) of the CHIKV-LR strain (Chikungunya virus La Reunion 2006 OPY-1 …, strain); assay: cell-based or functional assay
CHIKV 181-25 virion = biological target: T1, CHIKV 181-25 virion (Chikungunya virus, strain 181/25 …, UniProt Q88628, strain); assay: ELISA; virion capture competition ELISA: plates coated with 5 µg/ml CHK-65, 3x10^6 FFU of CHIKV 181-25 captured, incubated with mouse MAbs for one hour, washed, then 125 ng/ml hu-CHK-152, detected with biotin-labeled goat anti-human antibody and HRP-streptavidin; conditions: one partner purified
T1 construct: E2 envelope glycoprotein of Chikungunya virus strain 181-25, on virions; E1 envelope glycoprotein of Chikungunya virus strain 181-25, on virions; Whole virus particle captured on the plate by the MAb CHK-65; the capsid protein inside the particle is not written as a chain; also called CHIKV virion; virions; copies: 240 + 240

Row | Binder | EC50 of neutralisation of CHIKV-LR (FRNT on NIH 3T3 cells) [1] [µg/mL] | EC50 of neutralisation of CHIKV-LR (FRNT on Vero cells) [1] [µg/mL] | EC90 of neutralisation of CHIKV-LR (FRNT on Vero cells) [1] [µg/mL] | binding result (CHIKV 181-25 virion)
1 | B1 | 0.001 | 0.002 | 0.01 | binds
2 | B2 | 0.202 | 0.154 | 8.6 | 
3 | B3 | 0.03 | 0.014 | 0.351 | 
4 | B4 | 0.002 | 0.005 | 0.136 | 
